Assay: soluble fraction after stress (log2 fold change); higher = more stays soluble; pooled small domains, quantitative proteomics
Conditions: stress: pH 4
Procedure, shortened: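 Values are on a log2 scale, where higher means more of the domain stayed soluble after pH 4 stress. They are fold changes in the soluble amount of each domain from pooled custom libraries, measured by high-throughput quantitative proteomics. The fold change is taken to reflect aggregation propensity.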

Sequence | soluble fraction (log2)
HMQQIAVDLSEFKPRLMRDMSSMLAGLYTHDLDLSSLDFSKVANFTFMFRGAIITGTLKMPKI | 0.109
HMQQLDDDTVAYVADNGIAVKSKNGKELSVDTSGLSYDIIMDMFRNLPRNGDFFSSKYWSDNIQKAQAR | -1.34
HMQQLIEFSVTKGHPWINKKIMDLNLPENQLILTIQREGHVVSAEGKTIILENDRITISTDDR | -1.43
HMQQPVVVQQNQTVRVVTGGPGFQVANEGRALNNGLAGQVVQVRLGNGQIISGIARAGGIVEIL | 0.22
HMQQSQLDDIKSVVGGDEGYNKLREWTQANVPDETLKAFDKILDTQDPTMIKVAVEGFAAQMRQAE | -0.508
HMQQTAEDWKNKGDSLTAQSEYVEAIAAYDEAIRLDPNYAPAWSNKGNALKNLGEYYKAIQAYDEAIRL | -1
HMQQYLDAYDKALAFGIAMNKLPSYENLTLDDKEDVDKLKEIYDGMSNYEKTFVAKDFTDKLDRYVKRIE | 0.144
HMQRADYLILYYIKMQAEQHPDSKVYLADLAAVMGLKVTELSKAVEKLQDNGFVAWKTDREAGRTYVELS | -0.89
HMQRIFIDNHDRILYYSNPAGYIAGKEAVVDTMFQTQELERFLQKQSLSIRWEDGVYDRLLLGQ | -0.725
HMQRRHESTPIPADFDYAAVRGLSAEVQQKLERVRPLSIGQAQRIPGMTPAAISLLLVHLERQRRSRV | 0.00221
HMQRSVKNNDTVQVHYTGKLTNGQIFDSSIDKQPLEFQLGQGQIIPGFEKGLIDMTVSEKKTITIPEAEAY | 0.133
HMQSAEMTLDREGQPVQVRVELTGNEARITFLSDQEQTREALDAGMAQLRELLEQQGMVLAGVTV | -0.491
HMQSDQLSDREREILRLIGSGRTNQEISQELQVSGSTVRTHLQHILDKLGLENRNQAVLYAIRIGLAAPP | -0.372
HMQSHGSRIWTDITGNFTREASFIELAEGKVTLQLTDGRRTIISFEILSKKDQEYVLDIGDS | -1.95
HMQSKDDLLDTFRVVKGNAALLNDQNKKLIRSLKVSSFGFTGITDQAAEVKKEMPDVLLEKASIEDILF | -0.595
HMQSLAAKINGYIVAQRTSIAAIAKEIGYSRVTVSRYLAGKYDSDPTGIEAKLAAFLAGQTGEE | 0.114
HMQSNIHELQKKLNEALQALSEDHRAVVTMFDIQGMPHAEISKILGVSEGTVRSRLYYAHQQLQGHL | -0.663
HMQSRYALLAGMLRARITEGDWVPGSAIPAETVLAKEHGVALGTMRQAIALLVSQGLLERQHGRGTFVRS | -0.0211
HMQSSDQTDNIYENAVSIVLETGKASASHLQRVLGIDYNLAAHLIDKMEDGGLLSPPNYLGHRDVYGYT | -1.06
HMQTFNADDIEPIIKEILQENPKAISDFLTGNENVVKFLLGQVMKNTKGKANPKVIEELLINQLRELNN | -0.663
HMQTGYHVRITASTLNVRRDHSASSAVATQVRRGEVYTIVDEYNNGGTLWGKLKSGAGWIALKYTQS | ≥ 0.43
HMQTTITITNTVTGQKAQFPPPFNPMSLSKIGVDETFEKEVFVDGVDTFGYGLDGYLTFYELKDFLRSYQ | -2
HMQVEYTRGELLQDLKEENVLYATITPSRETPTGEVDFVFKDKSIKTLYVTDVSEIEGLLMDYGIDPEVKK | -0.367
HMQVITEPFQEKYREFINMSTVTQRLEERETLSFTAQTVEGRWLTIIIVPQGYDKTGKLSTVLVANR | 0.111
HMQVSDEGAIQLLVQKAIEENPQAIEAFRGGKTSALGPVVGWVMKQSKGAANPTMVKTLLEKAI | 0.378

Sequence | soluble fraction (log2)
HMQVVVEKSKEKVIISGNQYYIHIVKKGETAFSIAKAYGITVDELVKNNPSAATVLKEGQALRIPVVE | 0.22
HMQYDESSQLGERFLNQALNALKADPDKVGDAQWEKLLKENSAKSRQEVLADIGLGKQLAIVIARELLS | -0.37
HMQYPSSLDSRAKQSLYDNLERNEILALALDNVIQSNKLDGWRDGGIKERKLRLAINNLLKNDEHTDNIME | -0.284
HMQYQIITENGKQYYLYTVQKSEGFYSIGKRFEITNDEIIKANPEAALGLKLGQVLKIPVYK | -0.131
HMRAAKSEDTRTRLIEGGMALFGQKGYNATGIKDITDAAGVPKGSFYNYFASKEDFGAEIIHSY | -0.0559
HMRAEELEQFVERLKNEVMNNFPLKELSDNELREKIENLVEIRLANVYVSIEQRVAIAEQIYSSIR | -0.633
HMRAERVQITDPYIELHTGPGRGFPIFFVAPREQWISIELRHTDWFKVRAVGGQVGWVQRKQLEST | -0.295
HMRAGHDFEALKHIESSLDKHLTDEGIKIKSEKRGAIVARWYQSHVEGREVTDDDVHTWIELFF | -2.2
HMRAPIGFRISNRRKSLKISQVALARLVGISPSYLNLIENNKRDVGGALLQRVALHLNIDIDDL | -0.219
HMRARTLSTTGGESLLTLAESLYPDDDRARARFIEATAAANPKLFADIAALTRVLPAGTTLRMPDLRA | 0.129
HMRARTQYWPFVEEKAAELKLPLHLVNVEPLFGEQKVVVHYTANGRIDFRELVHLLARRFHARIEMR | 0.0493
HMRATLTDETARVVQEPTSESISLTSLRKGEEFEIGKVIRKKKEVWVTVTTSSGVKGYISGDTHIF | ≥ 0.43
HMRAVFEQLRIGQTLAGVVKAQEKGFSLVEIDGQTVAMRLPHPAAVGDTLRLRFAGHMPQAVFLLES | -0.178
HMRAVPSIAFVTQKLIEQGVTMEQLVRSLLLDHEEYENDDSLERTADELFGKARMIISNYTPE | -1.04
HMRDADRYAFMQENVEDFAKDMRRKHMTYDVLYEEYIRRTDNPYGYTQFKAIVQEYEKNHDYK | 0.253
HMRDGYEKPTEVGEGGRNPAMLSYIGHLRAKGHLSEEDIRSMAHGFNATTFDPPLDRDEVDGLVSRY | ≥ 0.43
HMRDITAQSNASELYFEERDLEAFIEKLERLYPEIRYVNRLMIHSWGQQVVRFFDPDGNLIEVGTP | -1.28
HMRDKTMLGNVIRTRRKKMNLTLEELSKQVGITSGGLSQIERGLVDPSLSVLRRISRALNLPMNVMFSE | ≥ 0.43
HMRDLAEAETILDALPTRLRKIVRWRHLEGLSQTEIAARLEISQMHVSRLYRRAISMIHASLADD | -0.843
HMREEQELFRKLLEVNGIGPKVAAGMLAGGRPEDVVSAIRREDVAWLTKLPGIGRKTAQRIVLDLKDKLD | 0.165
HMREPQMVTVNGDKVTHGHAYRSNVNPEDWYFTARINGQQLKPQKMEPADVAAYDKKEIGVPELMQR | -0.0539
HMRESPYRRVAKFLLLIGTAEAAKIVSRLDQDQVEKVMLELSGIRSVPRDEATVILAEFESLLQQAR | -1.2
HMRESRLFQILYQLLTKKKVTAANLAKQFEVSVRTIYRDIDALSSSGIPIYASQGKNGGIQLDEDF | -0.999
HMRETELPVTIISAGRILAENLHLAGRDGGWLEAELKRRSLTAEQVLLLTVDAAGTVYLVRKEDL | -0.617
HMREWPLWEIFIRGQHGLNHRHVGSLHAPDAAMAIGNARDVYTRRNEGVSIWAVRSADVVASVPSE | -1.44
